The target of this series is Lys38 (UniProt position 38, …). Kind of series: kinetics. Particulars: 19°C; 50 mM/50 mM TRIS/HEPES (pH 8.3-6.3), TRIS/MES (pH 6.6, 5.8), TRIS/citric acid (pH 5.3-2.8); Transporter in the native yeast plasma membrane, turning over with 1 mM L-lactate. The authors link the 7.43 inflection to Lys 38 in the substrate-unbound state.

B1: Monocarboxylate transporter 1 (MCT1) (Homo sapiens) (protein)
chain: MPPAVGGPVGYTPPDGGWGWAVVIGAFISIGFSYAFPKSITVFFKEIEGIFHATTSEVSWISSIMLAVMYGGGPISSILVNKYGSRIVMIVGGCLSGCGLIAASFCNTVQQLYVCIGVIGGLGLAFNLNPALTMIGKYFYKRRPLANGLAMAGSPVFLCTLAPLNQVFFGIFGWRGSFLILGGLLLNCCVAGALMRPIGPKPTKAGKDKSKASLEKAGKSGVKKDLHDANTDLIGRHPKQEKRSVFQTINQFLDLTLFTHRGFLLYLSGNVIMFFGLFAPLVFLSSYGKSQHYSSEKSAFLLSILAFVDMVARPSMGLVANTKPIRPRIQYFFAASVVANGVCHMLAPLSTTYVGFCVYAGFFGFAFGWLSSVLFETLMDLVGPQRFSSAVGLVTIVECCPVLLGPPLLGRLNDMYGDYKYTYWACGVVLIISGIYLFIGMGINYRLLAKEQKANEQKKESKEEETSIDVAGKPNEVTKAAESPDQKDTDGGPKEEESPV
The pKa is the pH at which an ionisable group is half protonated. Lower therefore signals a group that gives up its proton readily. Consider B1, for which the pKa is given as 7.43.

The values above are taken from publication PMC9982067.
